Test [1] deals with T1, ubiquitin (UniProt P0CG48 1-76). Kind of test: NMR titration.
The target in test [2] is T1, ubiquitin. The experiment in a line: NMR HSQC peak broadening and PRE.
Test [3] deals with T1, ubiquitin. Kind of test: NMR HSQC peak broadening and PRE. This is another data set of the same source.

Positions count from the first letter of the chain named. Numbers in names are those of the source. Where two headings read alike, the source gives them in different places.

B1: HD-PTP V domain (residues 361-711), wild type (domain or fragment)
chain: VPMAAHEASSLYSEEKAKLLREMMAKIEDKNEVLDQFMDSMQLDPETVDNLDAYSHIPPQLMEKCAALSVRPDTVRNLVQSMQVLSGVFTDVEASLKDIRDLLEEDELLEQKFQEAVGQAGAISITSKAELAEVRREWAKYMEVHEKASFTNSELHRAMNLHVGNLRLLSGPLDQVRAALPTPALSPEDKAVLQNLKRILAKVQEMRDQRVSLEQQLRELIQKDDITASLVTTDHSEMKKLFEEQLKKYDQLKVYLEQNLAAQDRVLCALTEANVQYAAVRRVLSDLDQKWNSTLQTLVASYEAYEDLMKKSQEGRDFYADLESKVAALLERTQSTCQAREAARQQLLDRE
As usually defined, the Kd is the free concentration of one partner at which half of the binding sites on the other are occupied at equilibrium, for simple one-to-one binding. The molecule B1 showed a dissociation constant Kd with ubiquitin [1] of about 31 µM.

B2: HD-PTP V domain Site2∆ (E388A, D389A), single spin label at residue 400 (S400) (domain or fragment)
chain: B1 chain with E28A, D29A, S40C, C65A, C268A, C337A
modifications: MTSL spin label on cysteine 400
B2: the binding result with ubiquitin [2] was “binds”.

B3: HD-PTP V domain lacking cysteine residues (C425A, C628A, C697A) (domain or fragment)
chain: B1 chain with C65A, C268A, C337A
Consider B3, for which, in the test with ubiquitin [3], the binding result was “binds”.

B4: HD-PTP V domain, no-Cys, S400C, MTSL-labelled (domain or fragment)
chain: B1 chain with S40C, C65A, C268A, C337A
modifications: MTSL spin label on cysteine 400
With B4, in the test with ubiquitin [3], the binding result is recorded as “binds”.

B5: HD-PTP V domain Site1∆ (L371A, E374A, E375A) (domain or fragment)
chain: B1 chain with L11A, E14A, E15A
For the molecule B5, the dissociation constant (Kd) with ubiquitin [1] worked out at 900 µM.

B6: HD-PTP V domain Site2∆ (E388A, D389A), single spin label at residue 368 (domain or fragment)
chain: B1 chain with A8C, E28A, D29A, C65A, C268A, C337A
modifications: MTSL spin label on cysteine 368
On to B6, for which, in the test with ubiquitin [2], the binding result is listed as “binds”.

B7: HD-PTP V domain, no-Cys, single cysteine at 368 (A368C), MTSL-labelled (domain or fragment)
chain: B1 chain with A8C, C65A, C268A, C337A
modifications: MTSL spin label on cysteine 368
As to B7, in the test with ubiquitin [3], the binding result is listed as “binds”.

The record behind these values is PMC8694081 (Molecular Biology of the Cell, 2021).
